Tests used:
[1] = molecular target: HAdV-19c (virus particle) (human adenovirus 19c (HAdV-19c)); test: co-sedimentation; as a1 but one concentration, 20 µM HD5; HD5 bound expressed as percent of HD5 bound to HAdV-5 in parallel samples
[2] = molecular target: HAdV-25p (virus particle) (human adenovirus 25 (HAdV-25p)); test: as above
[3] = molecular target: HAdV-51p (virus particle) (human adenovirus 51 (HAdV-51p)); test: as above
[4] = molecular target: HAdV-7p (virus particle) (human adenovirus 7 (HAdV-7p)); test: as above
[5] = molecular target: Ad5.eGFP, replication-defective HAdV-5 vector (virus particle) (human adenovirus 5 (HAdV-5)) (UniProt P04133); test: co-sedimentation; equilibrium-binding assay; HD5 serially diluted in PBS and mixed with 5 µg purified virus, 1 h on ice; virus/HD5 complex separated from unbound HD5 by ultracentrifugation on a discontinuous nycodenz gradient (50 mM NaCl, 20 mM HEPES pH 7.4, 4°C); bound HD5 quantified after SDS-PAGE (Deep Purple stain) against a standard curve; apparent affinity, no estimate of non-specific binding

Substance: human alpha-defensin HD5 (peptide)
- percent of the amount of HD5 bound to HAdV-5 [1]: 32.5%
- percent of the amount of HD5 bound to HAdV-5 [2]: 3.3%
- percent of the amount of HD5 bound to HAdV-5 [3]: 24.6%
- percent of the amount of HD5 bound to HAdV-5 [4]: 69.3%
- Kd [5]: 14.5 µM
- stoichiometry N (HD5 molecules per virus particle) [5]: 2750
